Measured values taken from patent US20220389394A1 (Gilead, published 2022).
Like-named read-outs stand apart in the source and are kept apart here.

T1: human FLT3 on the AML5 cell line (human, UniProt P36888 27-993)
T1 sequence (looked up): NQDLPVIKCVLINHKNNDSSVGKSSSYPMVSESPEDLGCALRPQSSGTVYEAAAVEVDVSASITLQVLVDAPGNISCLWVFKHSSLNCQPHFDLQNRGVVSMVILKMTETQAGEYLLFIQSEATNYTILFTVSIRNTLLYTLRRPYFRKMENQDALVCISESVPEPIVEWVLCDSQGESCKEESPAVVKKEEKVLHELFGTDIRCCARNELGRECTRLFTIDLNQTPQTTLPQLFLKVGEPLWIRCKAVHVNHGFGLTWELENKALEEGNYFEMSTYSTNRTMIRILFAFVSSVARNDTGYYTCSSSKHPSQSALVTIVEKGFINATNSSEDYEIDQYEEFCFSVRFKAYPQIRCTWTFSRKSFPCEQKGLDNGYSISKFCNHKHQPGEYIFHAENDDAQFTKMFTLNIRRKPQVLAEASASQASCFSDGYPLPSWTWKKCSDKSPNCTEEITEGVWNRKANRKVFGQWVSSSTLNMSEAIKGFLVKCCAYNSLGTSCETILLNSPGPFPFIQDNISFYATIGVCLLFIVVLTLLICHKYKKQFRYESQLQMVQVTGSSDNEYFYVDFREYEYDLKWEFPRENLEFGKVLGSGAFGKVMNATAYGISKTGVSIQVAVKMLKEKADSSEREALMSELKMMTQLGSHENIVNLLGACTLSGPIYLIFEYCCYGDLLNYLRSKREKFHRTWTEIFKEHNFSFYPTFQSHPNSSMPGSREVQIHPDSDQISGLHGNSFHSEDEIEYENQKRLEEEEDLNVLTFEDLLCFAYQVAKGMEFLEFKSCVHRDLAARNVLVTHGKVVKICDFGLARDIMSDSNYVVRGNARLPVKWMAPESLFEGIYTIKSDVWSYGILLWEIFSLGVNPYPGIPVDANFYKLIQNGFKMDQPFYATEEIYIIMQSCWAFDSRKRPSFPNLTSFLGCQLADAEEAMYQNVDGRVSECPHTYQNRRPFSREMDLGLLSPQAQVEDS

T2: his-tagged recombinant human Flt3 receptor (Sino Biologicals) (human, UniProt P36888 27-541, limits assumed)
T2 construct: Bought protein; also called human recombinant FLT3; not shown: His tag
T2 sequence (looked up): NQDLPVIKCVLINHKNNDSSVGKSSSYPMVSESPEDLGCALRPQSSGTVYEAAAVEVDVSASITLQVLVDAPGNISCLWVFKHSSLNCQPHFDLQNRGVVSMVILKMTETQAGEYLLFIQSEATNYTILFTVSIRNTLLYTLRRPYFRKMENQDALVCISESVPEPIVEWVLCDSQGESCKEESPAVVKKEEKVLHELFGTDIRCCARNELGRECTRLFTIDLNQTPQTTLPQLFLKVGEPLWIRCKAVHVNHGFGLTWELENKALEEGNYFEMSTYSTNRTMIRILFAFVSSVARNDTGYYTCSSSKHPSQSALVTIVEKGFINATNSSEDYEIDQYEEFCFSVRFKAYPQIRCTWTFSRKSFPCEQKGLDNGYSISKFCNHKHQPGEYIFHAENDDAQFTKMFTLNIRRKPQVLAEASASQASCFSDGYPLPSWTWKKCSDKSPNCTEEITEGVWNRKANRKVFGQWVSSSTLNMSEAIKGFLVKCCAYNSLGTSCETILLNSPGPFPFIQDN


Assays:
[1] = target: T1, human FLT3 on the AML5 cell line; assay: cell-based or functional assay
[2] = target: T3, recombinant human C1q protein (Fitzgerald) (human, UniProt P02745 23-245; P02746 28-253; P02747 29-245, limits assumed); assay: ELISA, test article immobilized, C1q added; text: devoid of C1q binding ability
T3 construct: also called human recombinant complement protein, C1q

[3] = target: T1, human FLT3 on the AML5 cell line; assay: cell-based or functional assay; remark: listed apart in the source
recombinant human FcRn = target: T4, recombinant human FcRn (human, UniProt P55899 24-297; P61769 21-119, limits assumed); assay: ELISA; recombinant human FcRn coated, serially diluted test article, anti-human (H+L)-HRP, 4PL fit; estimate, no saturating signal
T4 construct: a beta-2-microglobulin chain is not mentioned; also called human recombinant FcRn
Method: Graph is a result of one experiment. Experiment was performed in duplicate. Error bars represent standard deviation of the mean values.
Signal was developed using TMB substrate then quenched prior to reading absorbance at 450-650 nm on a SpectraMax plate reader.

[4] = target: T2, his-tagged recombinant human Flt3 …; assay: ELISA; His-tagged recombinant human Flt3 on nickel plate, serially diluted Flt3L-Fc, anti-human (H+L)-HRP, 4PL fit
Description: Graph is a result of one experiment.
Signal was developed using TMB substrate then quenched prior to reading absorbance at 450 nm on a SpectraMax plate reader.

[5] = target: T1, human FLT3 on the AML5 cell line; assay: cell-based or functional assay; remark: listed apart in the source
[6] = target: T1, human FLT3 on the AML5 cell line; assay: cell-based or functional assay; remark: listed apart in the source
[7] = target: T1, human FLT3 on the AML5 cell line; assay: cell-based or functional assay; remark: listed apart in the source

T3 sequence (P02745 23-245 limits assumed, chain 1 of 3): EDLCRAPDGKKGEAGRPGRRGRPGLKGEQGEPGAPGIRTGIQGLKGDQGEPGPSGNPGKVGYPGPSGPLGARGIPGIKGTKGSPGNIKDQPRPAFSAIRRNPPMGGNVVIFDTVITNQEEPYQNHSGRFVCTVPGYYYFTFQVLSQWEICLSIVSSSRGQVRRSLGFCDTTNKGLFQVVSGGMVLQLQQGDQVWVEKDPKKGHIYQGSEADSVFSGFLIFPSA
T3 sequence (P02746 28-253 limits assumed, chain 2 of 3): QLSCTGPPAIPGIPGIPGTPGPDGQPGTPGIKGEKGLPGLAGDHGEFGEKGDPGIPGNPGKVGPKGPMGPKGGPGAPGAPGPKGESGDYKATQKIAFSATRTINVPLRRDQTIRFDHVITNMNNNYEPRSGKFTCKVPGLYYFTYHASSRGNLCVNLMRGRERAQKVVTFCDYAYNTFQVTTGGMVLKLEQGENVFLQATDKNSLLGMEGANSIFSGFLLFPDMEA
T3 sequence (P02747 29-245 limits assumed, chain 3 of 3): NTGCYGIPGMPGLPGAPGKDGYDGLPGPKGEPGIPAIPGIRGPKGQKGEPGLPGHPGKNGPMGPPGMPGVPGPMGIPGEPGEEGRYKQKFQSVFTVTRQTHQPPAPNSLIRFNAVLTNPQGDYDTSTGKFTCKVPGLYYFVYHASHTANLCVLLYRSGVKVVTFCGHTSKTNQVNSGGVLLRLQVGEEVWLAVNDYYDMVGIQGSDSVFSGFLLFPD

Binder | EC50 (nM), AML5 proliferation [3] | EC50 (recombinant human FcRn) | EC50 [4] | potency in AML5 proliferation, fold against SEQ ID NO:1 [5] | EC50 (nM), AML5 proliferation [6] | binding result [2] | further results
mouse FLT3-ligand mouse IgG2a (LALA-PG) fusion protein (SEQ ID NO:19) (Fc fusion) TPDCYFSHSPISSNFKVKFRELTDHLLKDYPVTVAVNLQDEKHCKALWSLFLAQRWIEQLKTVAGSKMQTLLEDVNTEIHFVTSCTFQPLPECLRFVQTNISHLLKDTCTQLLALKPCIGKACQNFSRCLEVQCQPDSSTLLPPRSPIALEATELPEPRGPTIKPCPPCKCPAPNAAGGPSVFIFPPKIKDVLMISLSPIVTCVVVDVSEDDPDVQISWFVNNVEVHTAQTQTHREDYNSTLRVVSALPIQHQDWMSGKEFKCKVNNKDLGAPIERTISKPKGSVRAPQVYVLPPPEEEMTKKQVTLTCMVTDFMPEDIYVEWTNNGKTELNYKNTEPVLDSDGSYFMYSKLRVEKKNWVERNSYSCSVVHEGLHNHHTTKSFSRTPGK | – | – | – | – | – | – | EC50 (nM), AML5 proliferation [1]: 0.171 nM
mouse FLT3-ligand mouse IgG2a (C136S LALA-PG) fusion protein (SEQ ID NO:20) (Fc fusion) TPDCYFSHSPISSNFKVKFRELTDHLLKDYPVTVAVNLQDEKHCKALWSLFLAQRWIEQLKTVAGSKMQTLLEDVNTEIHFVTSCTFQPLPECLRFVQTNISHLLKDTSTQLLALKPCIGKACQNFSRCLEVQCQPDSSTLLPPRSPIALEATELPEPRGPTIKPCPPCKCPAPNAAGGPSVFIFPPKIKDVLMISLSPIVTCVVVDVSEDDPDVQISWFVNNVEVHTAQTQTHREDYNSTLRVVSALPIQHQDWMSGKEFKCKVNNKDLGAPIERTISKPKGSVRAPQVYVLPPPEEEMTKKQVTLTCMVTDFMPEDIYVEWTNNGKTELNYKNTEPVLDSDGSYFMYSKLRVEKKNWVERNSYSCSVVHEGLHNHHTTKSFSRTPGK | – | – | – | – | – | – | EC50 (nM), AML5 proliferation [1]: 0.115 nM
human FLT3-ligand (H8Y+K84E) human hingeless IgG1 fusion protein (SEQ ID NO:24) (Fc fusion) TQDCSFQYSPISSDFAVKIRELSDYLLQDYPVTVASNLQDEELCGGLWRLVLAQRWMERLKTVAGSKMQGLLERVNTEIHFVTECAFQPPPSCLRFVQTNISRLLQETSEQLVALKPWITRQNFSRCLELQCQPDSSTLPPPWSPRPLEATAPTAPQGGPSVFLFPPKPKDTLMISRTPEVTCVVVDVSHEDPEVKFNWYVDGVEVHNAKTKPREEQYNSTYRVVSVLTVLHQDWLNGKEYKCKVSNKALPAPIEKTISKAKGQPREPQVYTLPPSREEMTKNQVSLTCLVKGFYPSDIAVEWESNGQPENNYKTTPPVLDSDGSFFLYSKLTVDKSRWQQGNVFSCSVMHEALHNHYTQKSLSLSPGK | – | – | – | ~2.5 fold | 0.013 nM | – | –
human FLT3-ligand human IgG1 fusion protein (SEQ ID NO:21) (Fc fusion) TQDCSFQHSPISSDFAVKIRELSDYLLQDYPVTVASNLQDEELCGGLWRLVLAQRWMERLKTVAGSKMQGLLERVNTEIHFVTKCAFQPPPSCLRFVQTNISRLLQETSEQLVALKPWITRQNFSRCLELQCQPDSSTLPPPWSPRPLEATAPTAPQGGPSVFLFPPKPKDTLMISRTPEVTCVVVDVSHEDPEVKFNWYVDGVEVHNAKTKPREEQYNSTYRVVSVLTVLHQDWLNGKEYKCKVSNKALPAPIEKTISKAKGQPREPQVYTKPPSREEMTKNQVSLSCLVKGFYPSDIAVEWESNGQPENNYKTTVPVLDSDGSFRLASYLTVDKSRWQQGNVFSCSVMHEALHNHYTQKSLSLSPGK | – | – | – | – | – | – | EC50 (nM), AML5 proliferation [7]: 0.035 nM
human FLT3-ligand (K84E) human hingeless IgG1 fusion protein (SEQ ID NO:23) (Fc fusion) TQDCSFQHSPISSDFAVKIRELSDYLLQDYPVTVASNLQDEELCGGLWRLVLAQRWMERLKTVAGSKMQGLLERVNTEIHFVTECAFQPPPSCLRFVQTNISRLLQETSEQLVALKPWITRQNFSRCLELQCQPDSSTLPPPWSPRPLEATAPTAPQGGPSVFLFPPKPKDTLMISRTPEVTCVVVDVSHEDPEVKFNWYVDGVEVHNAKTKPREEQYNSTYRVVSVLTVLHQDWLNGKEYKCKVSNKALPAPIEKTISKAKGQPREPQVYTLPPSREEMTKNQVSLTCLVKGFYPSDIAVEWESNGQPENNYKTTPPVLDSDGSFFLYSKLTVDKSRWQQGNVFSCSVMHEALHNHYTQKSLSLSPGK | – | – | – | ~2.5 fold | 0.013 nM | – | –
human FLT3-ligand (H8Y) human hingeless IgG1 fusion protein (SEQ ID NO:22) (Fc fusion) TQDCSFQYSPISSDFAVKIRELSDYLLQDYPVTVASNLQDEELCGGLWRLVLAQRWMERLKTVAGSKMQGLLERVNTEIHFVTKCAFQPPPSCLRFVQTNISRLLQETSEQLVALKPWITRQNFSRCLELQCQPDSSTLPPPWSPRPLEATAPTAPQGGPSVFLFPPKPKDTLMISRTPEVTCVVVDVSHEDPEVKFNWYVDGVEVHNAKTKPREEQYNSTYRVVSVLTVLHQDWLNGKEYKCKVSNKALPAPIEKTISKAKGQPREPQVYTLPPSREEMTKNQVSLTCLVKGFYPSDIAVEWESNGQPENNYKTTPPVLDSDGSFFLYSKLTVDKSRWQQGNVFSCSVMHEALHNHYTQKSLSLSPGK | – | – | – | ~2.5 fold | 0.014 nM | – | –

Continued, in another order:

EC50 (nM), AML5 proliferation [3] | EC50 (recombinant human FcRn) | EC50 [4] | potency in AML5 proliferation, fold against SEQ ID NO:1 [5] | EC50 (nM), AML5 proliferation [6] | Binder | binding result [2] | further results
0.071 nM | ~158 nM | 0.12 nM | – | – | human FLT3-ligand (Δ10 amino acid) human hingeless IgG1 fusion protein (SEQ ID NO:7) (Fc fusion) TQDCSFQHSPISSDFAVKIRELSDYLLQDYPVTVASNLQDEELCGGLWRLVLAQRWMERLKTVAGSKMQGLLERVNTEIHFVTKCAFQPPPSCLRFVQTNISRLLQETSEQLVALKPWITRQNFSRCLELQCQPDSSTLPPPWSPRPGGPSVFLFPPKPKDTLMISRTPEVTCVVVDVSHEDPEVKFNWYVDGVEVHNAKTKPREEQYNSTYRVVSVLTVLHQDWLNGKEYKCKVSNKALPAPIEKTISKAKGQPREPQVYTLPPSREEMTKNQVSLTCLVKGFYPSDIAVEWESNGQPENNYKTTPPVLDSDGSFFLYSKLTVDKSRWQQGNVFSCSVMHEALHNHYTQKSLSLSPGK | no binding (tested: 94 nM (highest of the titration)) | –
0.083 nM | ~300 nM | 0.13 nM | – | – | human FLT3-ligand (Δ5 amino acid) human hingeless IgG1 fusion protein (SEQ ID NO:2) (Fc fusion, also called FLT3L ECD (Δ C-term 5aa (PTAPQ)) - hingeless hG1) TQDCSFQHSPISSDFAVKIRELSDYLLQDYPVTVASNLQDEELCGGLWRLVLAQRWMERLKTVAGSKMQGLLERVNTEIHFVTKCAFQPPPSCLRFVQTNISRLLQETSEQLVALKPWITRQNFSRCLELQCQPDSSTLPPPWSPRPLEATAGGPSVFLFPPKPKDTLMISRTPEVTCVVVDVSHEDPEVKFNWYVDGVEVHNAKTKPREEQYNSTYRVVSVLTVLHQDWLNGKEYKCKVSNKALPAPIEKTISKAKGQPREPQVYTLPPSREEMTKNQVSLTCLVKGFYPSDIAVEWESNGQPENNYKTTPPVLDSDGSFFLYSKLTVDKSRWQQGNVFSCSVMHEALHNHYTQKSLSLSPGK | no binding (tested: 94 nM (highest of the titration)) | –
0.078 nM | ~133 nM | 0.11 nM | – | – | human FLT3-ligand (S128A/S151A) human hingeless IgG1 fusion protein (SEQ ID NO:5) (Fc fusion, also called Aglyco-FLT3L ECD (S128A/S151A) hingeless hG1) TQDCSFQHSPISSDFAVKIRELSDYLLQDYPVTVASNLQDEELCGGLWRLVLAQRWMERLKTVAGSKMQGLLERVNTEIHFVTKCAFQPPPSCLRFVQTNIARLLQETSEQLVALKPWITRQNFARCLELQCQPDSSTLPPPWSPRPLEATAPTAPQGGPSVFLFPPKPKDTLMISRTPEVTCVVVDVSHEDPEVKFNWYVDGVEVHNAKTKPREEQYNSTYRVVSVLTVLHQDWLNGKEYKCKVSNKALPAPIEKTISKAKGQPREPQVYTLPPSREEMTKNQVSLTCLVKGFYPSDIAVEWESNGQPENNYKTTPPVLDSDGSFFLYSKLTVDKSRWQQGNVFSCSVMHEALHNHYTQKSLSLSPGK | no binding (tested: 94 nM (highest of the titration)) | –
